We go through 3 substances from PMC5964570.

In this experiment the target is Angiotensin I converting enzyme (ACE) from rabbit lung (rabbit) (UniProt P12822).
Chain of UniProt P12822 (P12822 34-1310): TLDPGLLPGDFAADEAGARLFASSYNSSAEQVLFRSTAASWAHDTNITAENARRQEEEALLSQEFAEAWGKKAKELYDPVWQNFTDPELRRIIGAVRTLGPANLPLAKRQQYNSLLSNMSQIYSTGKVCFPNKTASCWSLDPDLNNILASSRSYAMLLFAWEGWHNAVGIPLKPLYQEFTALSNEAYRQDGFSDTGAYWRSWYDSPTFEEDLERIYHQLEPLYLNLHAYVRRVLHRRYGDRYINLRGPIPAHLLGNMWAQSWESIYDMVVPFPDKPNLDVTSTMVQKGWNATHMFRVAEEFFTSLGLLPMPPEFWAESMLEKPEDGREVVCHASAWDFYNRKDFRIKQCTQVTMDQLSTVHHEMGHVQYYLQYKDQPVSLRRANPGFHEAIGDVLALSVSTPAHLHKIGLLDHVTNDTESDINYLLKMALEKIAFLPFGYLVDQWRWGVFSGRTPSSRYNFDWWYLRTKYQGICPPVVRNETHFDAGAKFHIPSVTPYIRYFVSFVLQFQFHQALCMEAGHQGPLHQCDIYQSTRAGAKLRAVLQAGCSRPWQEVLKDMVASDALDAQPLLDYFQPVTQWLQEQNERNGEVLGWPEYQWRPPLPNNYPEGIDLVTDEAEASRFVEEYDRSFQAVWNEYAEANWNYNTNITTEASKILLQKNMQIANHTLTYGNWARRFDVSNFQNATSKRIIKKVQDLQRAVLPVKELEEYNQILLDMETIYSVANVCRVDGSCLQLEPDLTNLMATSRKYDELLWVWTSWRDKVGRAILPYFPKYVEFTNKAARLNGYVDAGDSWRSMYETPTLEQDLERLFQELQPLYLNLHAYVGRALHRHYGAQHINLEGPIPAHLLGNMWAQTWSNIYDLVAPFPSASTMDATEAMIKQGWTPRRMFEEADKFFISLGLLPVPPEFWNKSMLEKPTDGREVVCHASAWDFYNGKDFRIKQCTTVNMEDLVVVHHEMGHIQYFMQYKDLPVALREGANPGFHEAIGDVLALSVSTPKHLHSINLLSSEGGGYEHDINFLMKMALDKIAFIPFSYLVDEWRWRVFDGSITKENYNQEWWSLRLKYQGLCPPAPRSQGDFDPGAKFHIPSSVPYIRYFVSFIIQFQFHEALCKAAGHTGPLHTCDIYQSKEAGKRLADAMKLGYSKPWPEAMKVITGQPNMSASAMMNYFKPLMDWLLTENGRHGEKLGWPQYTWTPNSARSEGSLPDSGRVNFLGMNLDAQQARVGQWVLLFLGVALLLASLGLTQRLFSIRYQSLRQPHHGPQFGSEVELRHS

As to Cys-Cys (peptide), the IC50 of inhibition of ACE activity (hippuric acid released from Hip-His-Leu, RP-HPLC; 50 mM HEPES, 360 mM NaCl, pH 8.3, 37°C) was 4.37 μM.
Turning to Cys-Phe (peptide), the IC50 of inhibition of ACE activity (hippuric acid released from Hip-His-Leu, RP-HPLC; 50 mM HEPES, 360 mM NaCl, pH 8.3, 37°C) was found to be 13.8 μM.
In the case of Cys-Arg (peptide), the IC50 of inhibition of ACE activity (hippuric acid released from Hip-His-Leu, RP-HPLC; 50 mM HEPES, 360 mM NaCl, pH 8.3, 37°C) was 476 μM.
